The results in this text go back to patent publication US20220089757A1 (ADAGENE PTE, published 2022).

The target of one assay is T1, human CD137L peptide 02 (human, biotinylated (position not given)).
T1 construct: Synthesized as biotinylated peptide; identical to peptide 01 except that it lacks the C-terminal 5 residues
T1 peptide: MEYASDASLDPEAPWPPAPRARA
Nature of the assay: ELISA, IgG on CD137L peptide 02. (ELISA stands for enzyme-linked immunosorbent assay.)

In another assay the target is T2, human CD137L peptide 01 (human, biotinylated (position not given)).
T2 construct: Synthesized as biotinylated peptide
T2 peptide: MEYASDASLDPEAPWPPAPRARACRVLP
Nature of the assay: ELISA, IgG on CD137L peptide 01.

For the next assay, the target named is T3, full length human CD137L (human, UniProt P41273 1-254).
T3 construct: also called CD137 ligand; human CD137 ligand
Kind of assay: immunofluorescence microscopy on fixed and permeabilized CHO-S-CD137L cells. Here is the method:
FIGS. 3A-3C show immunofluorescence staining of TY23557, TY23561, the Reference-1 and isotype control antibodies at the indicated concentrations. The positive control CHO-S-CD137L cell line and the negative control CHO-S cells were washed, fixed and permabilized in a similar fashion as in immunohistochemistry (IHC), followed by analysis through fluorescence microscopy. (FIG. 3A) CHO-S-CD137L cells were stained with TY23557 or TY23561 (0.4 nM or 40 nM). (FIG. 3B) CHO-S-CD137L cells were stained with Reference-1 (6.66 nM) or negative isotype control (40 nM). (FIG. 3C) CHO-S cells were stained with TY23557 (40 nM), TY23561 (40 nM), negative isotype control (40 nM) or Reference-1 (6.66 nM).
The specificity of the antibodies were further confirmed with immunofluorescence analysis. To that end, CHO-S and CHO-S-CD137L cells were cultured on cover slides overnight. Cells were washed with DPBS followed by fixing and permeabilizing with 2% (v/v) paraformaldehyde and 0.1% Triton X 100. Then the cells were incubated with TY23557, TY23561, negative isotype control and Reference-1 (positive control) for one hour at room temperature. After washing by 0.05% PBST, PE Goat anti-mouse IgG Fc were added and staining for one hour at room temperature. The samples were analyzed with fluorescent microscopy.

B1: TY23558 (antibody, V domains shown)
VH: EVQLVESGGGLVQPGGSLRLSCAASGYSISSGHYWSWIRQAPGKGLEWIGEIYHSGSTYYSPSLKSRVTISRDNSKNTLYLQLNSLRAEDTAVYYCAREGSDSYGGPDPFDIWGQGTLVTVSS
VL: DIQLTQSPSSLSASVGDRVTITCRARSTVSFPYLHWYQQKPGKAPKLLIYDASNLETGVPSRFSGSGSGTDFTLTISSLQPEDFATYYCQQSLEDPFTFGQGTKVEIKR
notes: Tested as IgG with Fc from mouse IgG2a, expressed in mammalian cells; also called TV23558
For B1, the EC50 (in general, the concentration at which the effect is half-maximal) was determined as 1.51 nM with human CD137L peptide 02 and 3.84 nM with human CD137L peptide 01.

B2: TY23561 (antibody, V domains shown)
VH: EVQLVESGGGLVQPGGSLRLSCAASGFSLSTSGVGVSWIRQAPGKGLEWLALIDWAGDKYYSPSLKSRLTISRDNSKNTLYLQLNSLRAEDTAVYYCARYGYSSYALDYWGQGTLVTVSS
VL: DIQLTQSPSSLSASVGDRVTITCRASQSVRGSYLAWYQQKPGKAPKLLIYAASTLQSGVPSRFSGSGSGTDFTLTISSLQPEDFATYYCQQYSSLWTFGQGTKVEIKR
notes: Tested as IgG with Fc from mouse IgG2a, expressed in mammalian cells
On to B2, for which the values for the EC50 with human CD137L peptide 02 and with human CD137L peptide 01 were 50 nM and 166 nM, respectively.

B3: TY23556 (antibody, V domains shown)
VH: EVQLVESGGGLVQPGGSLRLSCAASGYSITSGHYWGWIRQAPGKGLEWIGEIYHSGSTYYSPSLKSRVTISRDNSKNTLYLQLNSLRAEDTAVYYCTRGRYGLDYWGQGTLVTVSS
VL: DIQLTQSPSSLSASVGDRVTITCSASSSVGYVQWYQQKPGKAPKLLIYDASNRATGIPSRFSGSGSGTDFTLTISSLQPEDFATYYCQQYGSAPITFGQGTKVEIKR
notes: as for B2
Turning to B3, the EC50 with human CD137L peptide 02 was 0.48 nM; with human CD137L peptide 01, 0.66 nM.

B4: TY23559 (antibody, V domains shown)
VH: EVQLVESGGGLVQPGGSLRLSCAASGYSISSGHYWAWIRQAPGKGLEWIGEIYHSGSTYYSPSLKSRVTISRDNSKNTLYLQLNSLRAEDTAVYYCTRGRYGLDYWGQGTLVTVSS
VL: DIQLTQSPSSLSASVGDRVTITCSASSSVSYVQWYQQKPGKAPKLLIYDASNRATGIPSRFSGSGSGTDFTLTISSLQPEDFATYYCQQYSTNPLTFGQGTKVEIKR
notes: as for B2
In the case of B4, the EC50 with human CD137L peptide 02 came to 0.65 nM; with human CD137L peptide 01 it was 1.03 nM.

B5: TY23555 (antibody, V domains shown)
VH: EVQLVESGGGLVQPGGSLRLSCAASGYSISSGHYWAWIRQAPGKGLEWVSVISGSGGSTYYADSVKGRFTISRDNSKNTLYLQLNSLRAEDTAVYYCARYRSGAFDYWGQGTLVTVSS
VL: DIQLTQSPSSLSASVGDRVTITCRASQSISRWLAWYQQKPGKAPKLLIYAASSLQSGVPSRFSGSGSGTDFTLTISSLQPEDFATYYCQQAYSIWTFGQGTKVEIKR
notes: as for B2
On to B5, for which the values for the EC50 with human CD137L peptide 02 and with human CD137L peptide 01 were 12.3 nM and 28.5 nM, respectively.

B6: TY23554 (antibody, V domains shown)
VH: EVQLVESGGGLVQPGGSLRLSCAASGYSITSGYYWAWIRQAPGKGLEWIGIINPNRGSTKYAQKFQGRVTISRDNSKNTLYLQLNSLRAEDTAVYYCARDGWALSGGYYYYYGLDVWGQGTLVTVSS
VL: DIQLTQSPSSLSASVGDRVTITCRASQDISSDLAWYQQKPGKAPKLLIYDASNLETGVPSRFSGSGSGTDFTLTISSLQPEDFATYYCQQYDAWPSTFGQGTKVEIKR
notes: as for B2
On to B6, for which the EC50 with human CD137L peptide 02 is 1.59 nM; in the assay with human CD137L peptide 01, 3.13 nM.

B7: TY23562 (antibody, V domains shown)
VH: EVQLVESGGGLVQPGGSLRLSCAASGYSISSGYHWDWIRQAPGKGLEWIGRINPNRGSTKYAQKFQGRVTISRDNSKNTLYLQLNSLRAEDTAVYYCAREFGAYWGQGTLVTVSS
VL: DIQLTQSPSSLSASVGDRVTITCRASQSVDFVGKSFLDWYQQKPGKAPKLLIYDASNLETGVPSRFSGSGSGTDFTLTISSLQPEDFATYYCQQRASWPLTFGQGTKVEIKR
notes: as for B2
Regarding B7, the EC50 turned out to be 0.74 nM with human CD137L peptide 02 and 2.04 nM with human CD137L peptide 01.

B8: TY23557 (antibody, V domains shown)
VH: EVQLVESGGGLVQPGGSLRLSCAASGFTFTGYGIHWVRQAPGKGLEWVSAISGSGGSTYYADSVKGRFTISRDNSKNTLYLQLNSLRAEDTAVYYCARGAYYGGSYYFDYWGQGTLVTVSS
VL: DIQLTQSPSSLSASVGDRVTITCRASESITSSYLAWYQQKPGKAPKLLIYDASSLESGVPSRFSGSGSGTDFTLTISSLQPEDFATYYCFQGSHYPPTFGQGTKVEIKR
notes: as for B2
As for B8, the EC50 with human CD137L peptide 02 was found to be 6.77 nM; in the assay with human CD137L peptide 01, 10.1 nM. In addition, in the assay with full length human CD137L, the binding result is recorded as “binds”.
